# In article PMC2975869:
# Biological target: HA-tagged M593A-PTH1R (UniProt Q03431)
# Assay: radioligand binding
substance,measurement,value
[125I]-PTH(1-34)NH2 (peptide),"Total Binding (TB), cells co-transfected with EBP50",1290
same,"Total Binding (TB), cells co-transfected with pcDNA3",1180
